Experimental data as given in US20250346643A1, “TROPOMYOSIN KINASE RECEPTOR (TRK) LIGANDS AS THERAPEUTICS TO SUPPORT LIVER REGENERATION” (Vanderbilt University, priority 2024, published 2025).

B1: BDNF: brain-derived neurotrophic factor, neurotrophin specific for TrkB (protein)
chain: HSDPARRGELSVCDSISEWVTAADKKTAVDMSGGTVTVLEKVPVSKGQLKQYFYETKCNPMGYTKEGCRGIDKRHWNSQCRTTQSYVRALTMDSKKRIGWRFIRIDTSCVCTLTIKRGR
B2: HGF: hepatocyte growth factor, complete hepatocyte mitogen used as comparator (protein, UniProt Q08048 33-495; Q08048 496-728, looked up)
Hepatocyte growth factor …: QKKRRNTLHEFKKSAKTTLTKEDPLLKIKTKKVNSADECANRCIRNRGFTFTCKAFVFDKSRKRCYWYPFNSMSSGVKKGFGHEFDLYENKDYIRNCIIGKGGSYKGTVSITKSGIKCQPWNSMIPHEHSFLPSSYRGKDLQENYCRNPRGEEGGPWCFTSNPEVRYEVCDIPQCSEVECMTCNGESYRGPMDHTESGKTCQRWDQQTPHRHKFLPERYPDKGFDDNYCRNPDGKPRPWCYTLDPDTPWEYCAIKTCAHSAVNETDVPMETTECIQGQGEGYRGTSNTIWNGIPCQRWDSQYPHKHDITPENFKCKDLRENYCRNPDGAESPWCFTTDPNIRVGYCSQIPKCDVSSGQDCYRGNGKNYMGNLSKTRSGLTCSMWDKNMEDLHRHIFWEPDASKLNKNYCRNPDDDAHGPWCYTGNPLIPWDYCPISRCEGDTTPTIVNLDHPVISCAKTKQLR
Hepatocyte growth factor beta …: VVNGIPTQTTVGWMVSLKYRNKHICGGSLIKESWVLTARQCFPARNKDLKDYEAWLGIHDVHERGEEKRKQILNISQLVYGPEGSDLVLLKLARPAILDNFVSTIDLPSYGCTIPEKTTCSIYGWGYTGLINADGLLRVAHLYIMGNEKCSQHHQGKVTLNESELCAGAEKIGSGPCEGDYGGPLICEQHKMRMVLGVIVPGRGCAIPNRPGIFVRVAYYAKWIHKVILTYKL

Tests used:
[1] = system: primary mouse hepatocytes; test: Cell proliferation assay (CellTiter-Glo) in primary mouse hepatocytes; format: cell-based; conditions: for increase of primary hepatocyte proliferation: HGF 5 ng/ml, serum-free medium (FIG. 9M); for cell proliferation, comparison of NTF3, HGF, BDNF and NAS: BDNF and HGF 20 ng/ml, NAS 500 nM (FIG. 16E)
Description: Primary hepatocyte isolation. Pdgfrb-GFP-negative or H-2Kd mice older than 4 months were anesthetized and cannulated via the portal vein. Livers were perfused with about 25 ml of pre-warmed Liver Perfusion Medium (Gibco, Waltham, MA; 17707-038) followed by about 50 ml Liver Digestion Medium (Gibco, Waltham, MA; 17703-034). Liver capsule was gently teased apart with tweezers and hepatocytes released. Cells were taken up in Hepatocyte Wash Buffer (Gibco, Waltham, MA; 17704-024) and filtered through 100 μm mesh. Cells were then centrifuged for 2 min at 100 g, 4° C. and cell pellet resuspended in ice cold 10 ml DMEM (Gibco, Waltham, MA; 11885-084)/5% FBS. 10 ml of ice cold 100% Percoll®/PBS (GE HealthCare, Chicago, IL; GE17-0891-01) was added for gradient purification and cells centrifuged for 10 min at 200 g, 4° C. Cell pellet was resuspended with 20 ml DMEM/5% FBS and centrifuged for 2 min at 100 g, 4° C. 1-2×10^3 hepatocytes were plated on collagen-coated 96-well plates in DMEM/5% FBS/Pen/Strep. Rat tail collagen I (Gibco, Waltham, MA; A1048301) was used for coating. Cell culture media was changed 3 hours after plating with either serum-free William's E media (Gibco, Waltham, MA) containing Pen/Strep (Gibco, Waltham, MA) or DMEM/5% FBS/Pen/Strep. NTF3 (STEMCELL technologies, Vancouver, Canada) was added 1 day after plating at a final concentration of 20 ng/ml and primary hepatocytes cultured for 3 days with NTF3 until analysis.
Cell proliferation assays. Primary mouse hepatocytes, HepG2 or AML 12 cells were grown in opaque-walled 96-well plates. NTF3 (final concentration 20 ng/ml) (STEMCELL Technologies, Vancouver, Canada; cat. 78074) and/or Loxo-195 (final concentration 5 nM) (Selleckchem, Houston, TX; S8636) were added into complete growth media without L-glutamine. Primary mouse hepatocytes were also grown in serum-free William's E media without supplements. Cells were analyzed by CellTiter-Glo® (Promega G7570, Madison, WI) which detects the number of viable cells on day 0 to day 5 by on detection systems GloMax® (Promega) or Bioteck Synergy H1 (Agilent, Santa Clara, CA). Mouse recombinant HGF (Abcam, Cambridge, UK; ab281797) was added to cell culture media at a final concentration 5 ng/ml. TRKB inhibitor ANA-12 (Selleckchem, Houston, TX; S7745) was diluted in DMSO (10 mM stock solution) and added to cell culture media at a final concentration of 10 nM.
Primary mouse hepatocyte isolation. Mice were anesthetized and cannulated via the portal vein. Livers were perfused with ˜25 ml of prewarmed liver perfusion medium (Gibco, Waltham, MA; 17707-038) followed by ˜50 ml of liver digestion medium (Gibco, Waltham, MA; 17703-034). The liver capsule was gently teased apart with tweezers, and hepatocytes were released. Cells were taken up in Hepatocyte Wash Buffer (Gibco, Waltham, MA; 17704-024) and filtered through a 100-μm mesh. Cells were then centrifuged for 2 min at 100 g, 4° C., and the cell pellet was resuspended in 10 ml of ice-cold DMEM (Gibco, Waltham, MA; 11885-084)/5% FBS. […] of ice-cold 100% Percoll®/PBS (GE HealthCare, Chicago, IL; GE17-0891-01) were added for gradient purification, and cells were centrifuged for 10 min at 200 g, 4° C. The cell pellet was resuspended with 20 ml of DMEM/5% FBS and centrifuged for 2 min at 100 g, 4° C. A total of 1×10^3 to 2×10^3 hepatocytes were plated on collagen-coated 96-well plates in DMEM/5% FBS/Pen/Strep. Rat tail collagen I (Gibco, Waltham, MA; A1048301) was used for coating. Cell culture media were changed 3 hours after plating with either serum-free William's E media (Gibco, Waltham, MA) containing Pen/Strep (Gibco, Waltham, MA) or DMEM/5% FBS/Pen/Strep. […]

CCND1 and PCNA = test: Immunoblotting of mpPHH for CCND1 and PCNA; format: cell-based, human; conditions: mpPHHs, NTF3
Description: Mouse passaged primary human hepatocytes. Mouse-passaged primary human hepatocytes (mpPHHs) were collected as previously described (Michailidis et al., Proc Natl Acad Sci USA. 2020; 117(3): 1678-1688) and cultured in hepatocyte culture media (CC-3198, Lonza, Basel, Switzerland) in collagen-coated chamber slides. Three days before treatment, mpPHH were incubated in William's E media (with L-glutamine). […] 5-15 images per treatment per experiment were randomly taken and EdU positive nuclei quantified.
Immunoblotting. […] Protein concentration of supernatants was determined by Direct Detect Spectrophotometer (MilliporeSigma, Burlington, MA). […] The protein concentration of supernatants was determined by a Direct Detect® spectrophotometer (MilliporeSigma, Burlington, MA). For immunoblot analysis, 10 to 50 μg of protein diluted in […] sample buffer (Invitrogen, Waltham, MA) were analyzed per SDS-polyacrylamide gel electrophoresis (NuPAGE™, Invitrogen, Waltham, MA) using Mops buffer or MES buffer (Invitrogen, Waltham, MA). […] Semi-quantitative band densitometry was performed using ImageJ software (version 1.53).

Row | Molecule | synergism with HGF on primary hepatocyte proliferation ([1]; NTF3 20 ng/ml + HGF 5 ng/ml, serum-free medium (FIG. 9N)) | increase of primary hepatocyte proliferation ([1]; NTF3 20 ng/ml) [fold] | cell proliferation vs control-treated hepatocytes ([1]; NTF3 20 ng/ml, serum-free and serum-containing media (FIG. 8F, 9D)) | CCND1 and PCNA (immunoblotting) (CCND1 and PCNA) | cell proliferation ([1]; BDNF 20 ng/ml (FIG. 16C)) | cell proliferation, comparison of NTF3, HGF, BDNF and NAS [1]
1 | NTF3: neurotrophin-3, recombinant protein; HSC-derived hepatocyte mitogen, ligand of TRKA, TRKB, TRKC | no synergistic effects | 1.5 | significantly higher | induced CCND1 and PCNA | – | –
2 | B1 | – | – | – | – | significantly induced proliferation | induce proliferation to a similar extent
3 | B2 | – | 2.6 | – | – | – | more potent
